Like-named read-outs stand apart in the source and are kept apart here.
B1: A-5 (antibody, V domains shown)
VH: QVQLVESGGGLIQPGESLRLSCAASEFIVSRNYMSWVRQAPGKGLEWVSVIYSGGNTYYADSVKGRFTISRDNSKNTLYLQMNSLRAEDTAVYYCARDLRGPGCFDFWGQGTTVTVSS
VL: DIQVTQSPSSLSASVGDRVTITCQASQDISNFLNWYQQKPGKAPKLLIYDASNLETGVPSRFSASGSGTEFTFTISSLQPEDIATYYCQQYDNLRVTFGGGTKLEIK
B2: A-4 (antibody, V domains shown)
VH: EVQLVESGGGLIQPGGSLTLSCAASGFTVSSNYMNWVRQAPGKGLEWVSVIYSGGSTYYADSVKGRFTISRDNSKNTLYLQMNSLRAEDTAVYYCAREVYSYFDYWGQGTLVTVSS
VL: DIQLTQSPSFLSASVGDRVTITCRASQGISSYLAWYQQKPGKAPKLLIYAASTLQSGVPSRFSGSGSGTEFTLTISRLQPEDLATYYCQQLNSYPPHTFGQGAKLEIK
B3: A-15 (antibody, V domains shown)
VH: QVQLVQSGAEVKKPGASVKVSCKASGYTSSSYYMHWVRQAPGQGPEWMGIINPGGTSTSYAQKFQGRVTMTRDTSTSTVYMELSSLRSEDTAVYYCAIGYCSTTSCRWGDAFDIWGQGTMVTVSS
VL: DIQVTQSPSSLSASVGDRVTITCRASQSISSYLNWYQQKPEKAPNLLIYAASSLQSGVPSRFSGSGSGTDFTLTISSLQPEDFATYYCQQSSTTPPTFGQGTKVEIK
B4: A-21.1 (antibody, V domains shown)
VH: EVQLVESGGGLVQPGGSLRLSCAASGFTFRRYWMHWVRQAPGKGLVWVSRINSDGSSTTYADSVKGRFTISRDNAKNTLYLQMNSLRAEDTAVYYCARELYYYDSRGFEEGEGWFDPWGQGTLVTVSS
VL: QSVLTQPPSVSGAPGQRVTISCTGISSNIGAGYDVHWYQQLPGTAPKLLIYGNSNRPSGVPDRFSASKSGTSAPLAITGLQAEDEADYYCQSSDRSLSGSVFGTGTKVTVL
B5: A-23.3 (antibody, V domains shown)
VH: EVQLVESGGGLVQPGRSLRLSCAASGFTFDDYAMHWVRQAPGKGLEWVSGTSWNSGTIGYADSVKGRFIISRDNAKNSLYLQMNSLRGEDMALYYCVKDRKREDPSLGGMDVWGQGTTVTVSS
VL: SYVLTQPPSVSVAPGQTARITCGGNNIGSKSVHWYQQKPGQAPVLVVYDDTDRPSGIPERFSGSNSGNTATLTISRVEAGDEADYYCQVWDSSSDDYVFGTGTKVTVL
B6: A-20 (antibody, V domains shown)
VH: QVQLVESGGGVVQPGRSLRLSCAASGFTFSNFAMHWVRQAPGKGLEWVAVILYDGINKYYADSVKGRFTISRGNSKNTLSLQMNSLRAEDTAVYYCARAQNYYDRSGTLQLDAFDIWGQGTLVTVSS
VL: AIQMTQSPSSLSASVGDRVTITCRASQGIRNDLGWYQQKPGKAPKLLIYAASSLQSGVPSRFSGSGSGTDFTLTISSLQPEDFATYYCLQDYNYPLTFGGGTKVEIK
B7: A-20.1 (antibody, V domains shown)
VH: QVQLVESGGGVVQPGRSLRLSCAASGFTFSNFAMHWVRQAPGKGLEWVAVILYDGINKYYADSVKGRFTISRGNSKNTLSLQMNSLRAEDTAVYYCARAQNYYDRSGTLQLDAFDIWGQGTLVTVSS
VL: AIQMTQSPSSLSASVGDRVTITCVASQGIRNDLGWYQQKPGKAPKLLIYEASSLESGVPSRFSGSGSGTDFTLTISSLQPEDFATYYCLQDYNYPLTFGGGTKVEIK
B8: A-20.2 (antibody, V domains shown)
VH: QVQLVQSGGGVVQPGRSLRLSCAASGFTFDNFAMHWVRQAPGKGLEWVAVIEYDGINKYYADSVKGRFTISRGNSKNTLSLQMNSLRAEDTAVYYCARAQNYYDRYGTLQLDAFDIWGQGTLVTVSS
VL: AIQMTQSPSSLSASVGDRVTITCRASQGIRNDLGWYQQKPGKAPKLLIYDASSLQSGVPSRFSGSGSGTDFTLTISSLQPEDFATYYCLQDYNYPLTFGGGTKVEIK
B9: A-20.3 (antibody, V domains shown)
VH: QVQLVQSGGGVVQPGRSLRLSCAASGFTFDNFAMHWVRQAPGKGLEWVAVILYDGINDYYADSVKGRFTISRGNSKNTLSLQMNSLRAEDTAVYYCARAQNYYDRHGTLQLDAFDIWGQGTLVTVSS
VL: AIQMTQSPSSLSASVGDRVTITCRASDGIRNDLGWYQQKPGKAPKLLIYEASSLQSGVPSRFSGSGSGTDFTLTISSLQPEDFATYYCLQNYNYPLTFGGGTKVEIK
B10: A-7 (antibody, V domains shown)
VH: EVQLVESGAEVRKPGASVKVSCKASGYTFTFYYIHWVRQAPGQGLEWMGWISPISGATNYAQTFQGRVTMTRDTSITTAYMELSSLTSDDTAVYYCAREKYYDSSGSSDYWGQGTLVTVSS
VL: QPVLTQPPSVSAAPGQNVTIFCSGSSSNIGNNYVSWYQQLPGPAPKLLIYENNKRPSGIPDRFSGSKSGTSATLGITGLQTGDEADYYCGTWESSLSAPRVFGSGTKLTVL
B11: A-3 (antibody, V domains shown)
VH: EVQLLESGPGLVKPSETLSLTCTVSGGSINSRSYYWGWIRQPPGKGLEWIGSIYYSGSTYYNPSLKSRVTISVDTSKNQFSLKLSSVIAADTAVYFCARLEQWELPGGWFDPWGQGTLVTVSS
VL: NFMLTQPHSVSESPGKTVTISCTRSSGSIASNYVQWYQQRPGSAPTTVIYEDNQRPSGVPDRFSGSIDISSNSASLTISGLKTEDEADYSCQSSDSSNVVFGGGTKLTVL
B12: A-14 (antibody, V domains shown)
VH: EVQLVESGGGVVQPGRSLRLSCAASGFTFSTYGMHWVRQAPGKGLEWVAVIWYDGSNKYYADSVKGRFTISRDNSKNTLYLQMNSLRAEDTAVYYCARSVDGDYLEYFQHWGQGTLVTVSS
VL: QPVLTQPRSVSGSPGQSVTISCTGTSSDVGGYNYVSWYQQHPGKAPKLMIYDVSKRPSGVPDRFSGSKSGNTASLTISGLQAEDEADYYCCSYAGGYTNYVFGTGTKLTVL
B13: A-8 (antibody, V domains shown)
VH: EVQLLESGGGLVQPGGSLRLSCAASGFTFSSYAMSWVRQAPGKGLEWVSAISGSGNSTSYADSVKGRFTLSRDNSKNTLYLQMNSLRAEDTAIYYCAKGLGTRSFNWGAFDYWGQGTLVTVSS
VL: DIRVTQSPSSLSASVGDRVTITCRASQGISYSLAWYQQKPGKAPKLLLYAASNLESGVPSRFSGSGSGTDYTLTVSSLQPEDFATYYCQQYYSTPWTFGQGTKVEIK
B14: A-17 (antibody, V domains shown)
VH: EVQLQESGPGLVKPSETLSLTCTVSGGSISSYYWSWIRQPPGKGLEWIGYIYYSGSTNYNPSLKSRVTISVGTSKNQFSLKLSSVTAADTAVYYCAKSASDEPPPSTAAAGSHYYYYGMDVWGQGTTVTVSS
VL: EIVMTQSPLSLPVTPGEPASISCRSSQSLLHSNGYNYLDWYLQKPGQSPHVLIYLGSNRASGVPDRFSGSGSGTDFTLKISRVEAEDVGVYYCMQALQTPNTFGQGTKLEIK
B15: A-12 (antibody, V domains shown)
VH: EVQLLESGGGLVQPGGSLRLSCAVSGLTVSSNYMSWVRQAPGKGLEWVSLIYSGGSTYYADSVKGRFTISRDNSKNTLYLQMNSLRAEDTAVYYCARGELGIPYGMDVWGQGTTVTVSS
VL: QSVLTQPPSVSAAPGQKVTISCSGGSSNVGDNFVSWYQQLPGTAPKLLIYDNNRRPSGIPDRFSGSKSGTSATLGITGLQTGDEADYYCGTWDSSLSAGVFGGGTKVTVL

Tests used:
[1] = molecular target: SARS-CoV-2 S Trimer (SARS-CoV-2, UniProt P0DTC2 16-1213); assay: Octet BLI, IgG, avid
[2] = molecular target: T1, SARS-CoV-2 wild type spike protein (on reporter virus particles) (SARS-CoV-2, UniProt P0DTC2 14-1273); assay: cell-based or functional assay
[3] = molecular target: T2, SARS-CoV-2 Spike S1-His (SARS-CoV-2, UniProt P0DTC2 16-685); assay: Octet BLI, IgG, monovalent
[4] = molecular target: T3, SARS-CoV1 Spike [change] (SARS-CoV-1, UniProt P59594 14-667); assay: Octet BLI, IgG, monovalent
[5] = molecular target: T4, MERS-CoV [change] (MERS-CoV, UniProt K9N5Q8 18-725); assay: Octet BLI, IgG, monovalent
T4 sequence: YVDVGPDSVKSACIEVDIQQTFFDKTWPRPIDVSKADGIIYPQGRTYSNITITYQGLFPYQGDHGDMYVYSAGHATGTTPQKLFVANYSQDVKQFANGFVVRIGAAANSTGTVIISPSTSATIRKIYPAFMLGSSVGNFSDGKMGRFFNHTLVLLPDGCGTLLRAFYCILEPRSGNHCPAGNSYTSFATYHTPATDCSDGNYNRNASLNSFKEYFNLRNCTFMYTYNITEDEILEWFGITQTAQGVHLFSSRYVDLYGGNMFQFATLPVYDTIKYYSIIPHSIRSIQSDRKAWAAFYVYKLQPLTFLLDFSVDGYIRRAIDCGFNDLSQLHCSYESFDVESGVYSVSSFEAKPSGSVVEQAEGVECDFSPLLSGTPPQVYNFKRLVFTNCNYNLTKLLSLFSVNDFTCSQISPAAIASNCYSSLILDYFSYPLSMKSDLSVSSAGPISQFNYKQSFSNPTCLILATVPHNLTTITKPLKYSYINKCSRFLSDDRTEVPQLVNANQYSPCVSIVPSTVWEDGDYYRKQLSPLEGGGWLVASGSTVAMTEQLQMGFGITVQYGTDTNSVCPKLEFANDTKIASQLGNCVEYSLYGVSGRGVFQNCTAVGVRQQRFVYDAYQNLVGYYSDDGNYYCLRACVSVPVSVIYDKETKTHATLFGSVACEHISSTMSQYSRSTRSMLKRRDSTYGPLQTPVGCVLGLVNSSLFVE

[6] = molecular target: T1, SARS-CoV-2 wild type spike protein (on …); assay: cell-based or functional assay; remark: listed apart in the source
[7] = molecular target: T3, SARS-CoV1 Spike [change]; assay: Octet BLI, IgG, monovalent; remark: listed apart in the source
[8] = molecular target: T2, SARS-CoV-2 Spike S1-His; assay: Octet BLI, IgG, monovalent; remark: listed apart in the source

Binder	Kd [1]	PsV Neut Assay IC50 [2]	Kd [3]	binding result [4]	binding result [5]	WT PsV IC50 [6]	Kd [7]	binding result [7]	Kd [8]
B1	2.41 nM	1.1 nM	37.3 nM	no binding	no binding	–	–	–	–
B2	1.97 nM	2.26 nM	–	no binding	no binding	–	–	–	–
B3	1.62 nM	1.44 nM	7.82 nM	no binding	no binding	–	–	–	–
B4	–	–	–	–	–	1.75 nM	6.57 nM	–	–
B5	–	–	–	–	–	–	–	no binding	–
B6	–	–	–	–	–	2.45 nM	22 nM	–	3.95 nM
B7	–	–	–	–	–	–	5.29 nM	–	–
B8	–	–	–	–	–	1.06 nM	1.74 nM	–	0.293 nM
B9	–	–	–	–	–	1.51 nM	3.52 nM	–	0.366 nM
B10	0.804 nM	0.0922 nM	2.71 nM	no binding	no binding	–	–	–	–
B11	0.945 nM	0.419 nM	37.4 nM	no binding	no binding	–	–	–	–
B12	2.09 nM	1.61 nM	26.6 nM	no binding	no binding	–	–	–	–
B13	1.53 nM	0.846 nM	0.477 nM	no binding	no binding	–	–	–	–
B14	–	0.66 nM	1.58 nM	no binding	no binding	–	–	–	–
B15	1.11 nM	0.404 nM	2.57 nM	no binding	no binding	–	–	–	–

Source: patent US20260217797A1 (Takeda / Millennium, published 2026)
